Data set [1] is described as follows: Enzyme half-life at 50° C.
The nature of data set [2]: ALS activity (pyruvate consumption). The format is biochemical. The following applies: natural substrate. The protocol: (§1) (J. Mol. Catal. B-Enzym. 2009, 61, 30-35).
ALS activity: ALS activity was determined by following pyruvate consumption at 50° C. Reaction mixtures contained 25 mM HEPES (pH 7), 0.1 mM thiamine-pyrophosphate, 2.5 mM MgCl2, 15 mM sodium pyruvate. Pyruvate concentration in the samples was determined via lactate dehydrogenase as described elsewhere. (Biochem. J. 2007, 403, 421-430)

Data set [3] can be described thus: Isobutanol tolerance of enzymes (I50). The format is biochemical.
The conditions of data set [4]: Table 2, value with literature reference; cited from earlier work.
The nature of data set [5]: KARI activity (NADH consumption, acetolactate to 2,3-dihydroxy isovalerate). As to conditions: natural substrate. Format: biochemical. The protocol: as §1
KARL activity: KARI activity was assayed by following the NADH consumption connected to the conversion of acetolactate to 2,3-dihydroxy isovalerate at 50° C. Assay mixture contained 5 mM acetolactate, 0.3 mM NADH, 10 mM MgCl2 and 50 mM HEPES, pH 7.

Data set [6] can be described thus: Enzyme temperature optimum. The format is biochemical.
The nature of data set [7]: Ethanol tolerance of enzymes (E50). Format: biochemical. The following applies: 45° C.
Data set [8] is described as follows: GDH activity assay (oxidation of D-glucose to gluconate, NAD reduction). The format is biochemical. The following applies: natural substrate. The protocol:
as §1
GDH activity: GDH activity was assayed at 50° C. by oxidizing D-glucose to gluconate, whereby the coenzyme NAD is reduced to NADH. Assay mixture contained 50 mM HEPES (pH 7), 2 mM NAD and 50 mM D-glucose. (J. Biol. Chem. 2006, 281, 14796-14804)

Like-named read-outs stand apart in the source and are kept apart here.

B1: ALS: Acetolactate synthase ALS (EC 2.2.1.6), Bacillus subtilis, Seq ID 12 (protein, listed as Bacillus subtilis)
chain: MLTKATKEQKSLVKNRGAELVVDCLVEQGVTHVFGIPGAKIDAVFDALQDKGPEIIVARHEQNAAFMAQAVGRLTGKPGVVLVTSGPGASNLATGLLTANTEGDPVVALAGNVIRADRLKRTHQSLDNAALFQPITKYSVEVQDVKNIPEAVTNAFRIASAGQAGAAFVSFPQDVVNEVTNTKNVRAVAAPKLGPAADDAISAAIAKIQTAKLPVVLVGMKGGRPEAIKAVRKLLKKVQLPFVETYQAAGTLSRDLEDQYFGRIGLFRNQPGDLLLEQADVVLTIGYDPIEYDPKFWNINGDRTIIHLDEIIADIDHAYQPDLELIGDIPSTINHIEHDAVKVEFAEREQKILSDLKQYMHEGEQVPADWKSDRAHPLEIVKELRNAVDDHVTVTCDIGSHAIWMSRYFRSYEPLTLMISNGMQTLGVALPWAIGASLVKPGEKVVSVSGDGGFLFSAMELETAVRLKAPIVHIVWNDSTYDMVAFQQLKKYNRTSAVDFGNIDIVKYAESFGATGLRVESPDQLADVLRQGMNAEGPVIIDVPVDYSDNINLASDKLPKEFGELMKTKALL
As for B1, in data set [1], the “Half-life, 50° C.” value stood at 12 h. For the same molecule, in data set [2], the “Activity, 50° C.” value came to 30 U/mg. The “I50: Isobutanol concentration which causes loss of 50% activity” value in data set [3] (50° C.) is listed as 4 (50° C.) % v/v. In addition, the T-Optimum in data set [4] is 37^[4] ° C.

B2: KARI: Ketol-acid reductoisomerase KARI (EC 1.1.1.86), Meiothermus ruber, Seq ID 14 (protein)
chain: MKIYYDQDADIGFIKDKTVAILGFGSQGHAHALNLRDSGIKVVVGLRPGSRNEEKARKAGLEVLPVGEAVRRADVVMILLPDETQGAVYKAEVEPNLKEGAALAFAHGFNIHFGQIKPRRDLDVWMVAPKGPGHLVRSEYEKGSGVPSLVAVYQDASGSAFPTALAYAKANGGTRAGTIATTFKDETETDLFGEQTVLCGGLTQLIAAGFETLVEAGYPPEMAYFECLHEVKLIVDLIYESGFAGMRYSISNTAEYGDYTRGPMVINREETKARMREVLRQIQQGEFAREWMLENVVGQPTLNANRNYWKDHPIEQVGPKLRAMMPFLKSRFTKEEVGSSGRPVLGSSHHHHHH
modifications: Ketolacid reductoisomerase (EC 1.1.1.86), Meiothermus ruber Protein sequence including C-terminal His-Tag
As for B2, in data set [5], the “Activity, 50° C.” value turned out to be 0.7 U/mg. The T-Optimum in data set [6] (Table 2) came out at 55 °C. Also, the “Half-life, 50° C.” value in data set [1] was 34 h. The “I50: Isobutanol concentration which causes loss of 50% activity” value in data set [3] (40° C.) is reported as 8 (40° C.) % v/v.

B3: GDH: Glucose dehydrogenase GDH (EC 1.1.1.47), Sulfolobus solfataricus, NP 344316.1, Seq ID 02 (protein)
chain: MKAIIVKPPNAGVQVKDVDEKKLDSYGKIKIRTIYNGICGTDREIVNGKLTLSTLPKGKDFLVLGHEAIGVVEESYHGFSQGDLVMPVNRRGCGICRNCLVGRPDFCETGEFGEAGIHKMDGFMREWWYDDPKYLVKIPKSIEDIGILAQPLADIEKSIEEILEVQKRVPVWTCDDGTLNCRKVLVVGTGPIGVLFTLLFRTYGLEVWMANRREPTEVEQTVIEETKTNYYNSSNGYDKLKDSVGKFDVIIDATGADVNILGNVIPLLGRNGVLGLFGFSTSGSVPLDYKTLQEIVHTNKTIIGLVNGQKPHFQQAVVHLASWKTLYPKAAKMLITKTVSINDEKELLKVLREKEHGEIKIRILWESGRPVLGSSHHHHHH
modifications: Glucose dehydrogenase (EC 1.1.1.47), Sulfolobus solfataricus Protein sequence including C-terminal His-Tag
For B3, in data set [7], the “E50: Ethanol concentration which causes loss of 50% activity” value was 30 (45° C.) % v/v. Moreover, the “Activity, 50° C.” value in data set [8] came out at 15 U/mg. Also, the T-Optimum in data set [6] (Table 1) is 70 50 °C; in data set [6] (Table 2), 70 °C. In addition, the “I50: Isobutanol concentration which causes loss of 50% activity” value in data set [3] (45° C.) is on record as 9 (45° C.) % v/v.

Source of the values: patent US20150218594A1, “CELL-FREE AND MINIMIZED METABOLIC REACTION CASCADES FOR THE PRODUCTION OF CHEMICALS” (CLARIANT PRODUKTE (DEUTSCHLAND) GMBH, priority 2012, published 2015).
